The target of the test is T1, SBP-fused phyB (SBP-phyB), recombinant full-length phyB (Arabidopsis thaliana, UniProt P14713 1-1172, made in phycocyanobilin-producing LMG194 (chromophore); Pfr or Pr form set by a red or far-red light pulse).
T1 construct: phytochrome B (phyB), Arabidopsis thaliana, full length; pBAD-derived vector; the Pfr and Pr forms are told apart by the assay; also called phytochrome B; Pfr form; source: phycocyanobilin-producing E. coli LMG194, purified (Ni-NTA, Streptavidin sepharose)
T1 sequence (looked up): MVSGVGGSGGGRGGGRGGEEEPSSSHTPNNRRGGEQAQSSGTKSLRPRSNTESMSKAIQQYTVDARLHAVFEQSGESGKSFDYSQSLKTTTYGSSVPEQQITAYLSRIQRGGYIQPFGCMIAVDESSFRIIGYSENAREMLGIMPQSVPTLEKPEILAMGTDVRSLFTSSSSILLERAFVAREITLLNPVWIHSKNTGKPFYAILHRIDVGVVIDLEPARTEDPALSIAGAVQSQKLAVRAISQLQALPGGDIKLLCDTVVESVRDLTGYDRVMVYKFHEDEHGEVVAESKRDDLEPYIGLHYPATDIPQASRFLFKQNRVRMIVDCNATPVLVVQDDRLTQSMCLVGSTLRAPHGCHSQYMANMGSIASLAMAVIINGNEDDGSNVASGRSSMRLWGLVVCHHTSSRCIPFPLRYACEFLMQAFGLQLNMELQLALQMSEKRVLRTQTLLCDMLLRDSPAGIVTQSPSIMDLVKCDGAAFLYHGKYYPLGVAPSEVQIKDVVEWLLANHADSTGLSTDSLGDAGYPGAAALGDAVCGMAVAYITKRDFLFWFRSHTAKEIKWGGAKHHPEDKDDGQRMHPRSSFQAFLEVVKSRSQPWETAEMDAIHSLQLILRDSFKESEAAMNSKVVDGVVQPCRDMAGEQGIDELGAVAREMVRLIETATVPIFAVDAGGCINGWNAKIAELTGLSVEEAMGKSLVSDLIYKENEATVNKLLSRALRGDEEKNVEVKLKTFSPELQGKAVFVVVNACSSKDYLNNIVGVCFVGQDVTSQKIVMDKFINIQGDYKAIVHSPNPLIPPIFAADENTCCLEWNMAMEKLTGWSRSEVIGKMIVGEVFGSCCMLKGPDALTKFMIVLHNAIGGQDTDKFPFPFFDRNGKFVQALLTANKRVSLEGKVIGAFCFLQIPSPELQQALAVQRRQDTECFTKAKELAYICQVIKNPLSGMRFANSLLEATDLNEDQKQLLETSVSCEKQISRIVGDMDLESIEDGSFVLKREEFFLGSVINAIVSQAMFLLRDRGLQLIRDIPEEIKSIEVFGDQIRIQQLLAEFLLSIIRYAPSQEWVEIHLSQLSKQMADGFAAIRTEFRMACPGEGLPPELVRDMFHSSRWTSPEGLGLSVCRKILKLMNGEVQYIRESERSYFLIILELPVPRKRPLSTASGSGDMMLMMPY
In words: pull-down; GST fusions incubated with SBP-phyB in the Pfr form (red light pulse 25 μmol/m2/s, 10 min, before the incubation), glutathione resin; 25 mM HEPES, 150 mM KCl, 1 mM DTT, pH 7.40; green safety light. The settings on record: both partners purified.

B1: GST-fused PIF4 (GST-PIF4) (natural protein, Arabidopsis thaliana, UniProt Q8W2F3 1-430, looked up)
chain: MEHQGWSFEENYSLSTNRRSIRPQDELVELLWRDGQVVLQSQTHREQTQTQKQDHHEEALRSSTFLEDQETVSWIQYPPDEDPFEPDDFSSHFFSTMDPLQRPTSETVKPKSSPEPPQVMVKPKACPDPPPQVMPPPKFRLTNSSSGIRETEMEQYSVTTVGPSHCGSNPSQNDLDVSMSHDRSKNIEEKLNPNASSSSGGSSGCSFGKDIKEMASGRCITTDRKRKRINHTDESVSLSDAIGNKSNQRSGSNRRSRAAEVHNLSERRRRDRINERMKALQELIPHCSKTDKASILDEAIDYLKSLQLQLQVMWMGSGMAAAAASAPMMFPGVQPQQFIRQIQSPVQLPRFPVMDQSAIQNNPGLVCQNPVQNQIISDRFARYIGGFPHMQAATQMQPMEMLRFSSPAGQQSQQPSSVPTKTTDGSRLDH
notes: source: E. coli BL21(DE3)-CodonPlus-RIL, purified (Ni-NTA, glutathione agarose); not shown: GST, N-terminal, kept
B1: the binding result is listed as “binds”.
